In the assay the target is HIV-1 JR-FL envelope glycoprotein (gp120 and gp41) on GFP-labelled Env-pseudotyped particles (HIV-1 isolate JR-FL).

“tetrameric CD4-IgG2 molecule (PRO 542) (from UniProt P01730 26-396; P01730 26-396) (Fc fusion)” yielded an IC50 of inhibition of JR-FL infection of TZM-bl cells (luciferase), cell-cell transmission from infected PBMC against cell-free virus; the pair blocked is m1+m3 of 40 fold.

The values are drawn from paper PMC3320602.
